± gives the uncertainty stated by the source.
B1: Pyruvate dehydrogenase protein X component, mitochondrial, residues 181 to 227; numbered along this chain, O00330 (parent)
chain: RFRLSPAARNILEKHSLDASQGTATGPRGIFTKEDALKLVQLKQTGK
B2: CD2-associated protein, residues 1 to 59; numbered along this chain, Q9Y5K6 (parent)
chain: MVDYIVEYDYDAVHDDELTIRVGEIIRNVKKLQEEGWLEGELNGRRGMFPDNFVKEIKR

Variants of: B1
Assay: abundance fitness (aPCA) (normalised: wild type 0, dead -1); higher = more abundant; growth selection in yeast, the domain comes from the species named
Details: Homo sapiens

Variant | abundance fitness
L4G | -0.241 ± 0.044
L4D | 0.005 ± 0.097
L4F | -0.284 ± 0.14
L4A | -0.37 ± 0.063
L4E | -0.104 ± 0.046
L4H | -0.758 ± 0.11
L4I | 0.245 ± 0.074
L4C | -0.086 ± 0.064
F2H | -0.878 ± 0.16
F2R | -0.65 ± 0.041
F2Q | -0.679 ± 0.13
F2P | -1.1 ± 0.14
F2K | -0.232 ± 0.073
F2Y | -0.015 ± 0.083
F2V | -0.486 ± 0.056
F2W | -1.25 ± 0.11
F2T | -0.323 ± 0.079
F2G | -0.535 ± 0.04
F2L | -0.46 ± 0.046
F2S | -0.239 ± 0.046

Variant | abundance fitness
F2M | 0.137 ± 0.081
F2C | -0.605 ± 0.075
F2A | -0.536 ± 0.063
F2N | 0.091 ± 0.073
F2E | -0.316 ± 0.059
F2D | -0.267 ± 0.088
F2I | -0.059 ± 0.1
R3V | 0.04 ± 0.045
R3I | 0.367 ± 0.097
R3L | -0.393 ± 0.05
R3N | 0.31 ± 0.1
R3K | -0.16 ± 0.078
R3H | 0.04 ± 0.11
R3E | -0.57 ± 0.069
R3M | -0.091 ± 0.077
R3W | -0.119 ± 0.046
R3S | -0.14 ± 0.055
R3C | -0.064 ± 0.069
R3Y | 0.109 ± 0.077
R3Q | -0.374 ± 0.084

Variant | abundance fitness
R3D | -0.594 ± 0.13
R3F | 0.144 ± 0.06
R3P | -0.188 ± 0.073
R3G | -0.336 ± 0.047
R3A | -0.504 ± 0.061
R1P | -1.1 ± 0.25
R1N | -0.353 ± 0.29
R1V | -0.685 ± 0.054
R1Q | -0.362 ± 0.32
R1M | -0.489 ± 0.17
R1A | 0.02 ± 0.23
R1W | -0.651 ± 0.16
R1I | -0.317 ± 0.36
R1G | 0.171 ± 0.063
R1S | 0.145 ± 0.095
R1T | -1.29 ± 0.45
R1K | -0.289 ± 0.17
R1C | -0.516 ± 0.27
R1E | -0.206 ± 0.14

Variants of: B2
Assay: as above
Details: Homo sapiens

Variant | abundance fitness
H14W | -0.455 ± 0.17
H14E | -0.016 ± 0.13
H14K | 0.088 ± 0.15
H14D | -0.113 ± 0.18
R27K | -0.283 ± 0.35
R27M | -0.133 ± 0.18
R27E | -0.081 ± 0.2
R27L | -0.208 ± 0.086
R27T | -0.013 ± 0.079
N52F | 0.073 ± 0.13
N52V | 0.061 ± 0.17
N52M | -0.155 ± 0.11
N52A | -0.091 ± 0.22
N52D | -0.236 ± 0.23
N52T | -0.05 ± 0.11
N52R | 0.028 ± 0.094
D3H | -0.188 ± 0.1
D3C | -0.237 ± 0.085
D3M | -0.135 ± 0.072
L38P | -1.07 ± 0.33
L38A | -0.25 ± 0.1
L38N | -0.558 ± 0.16

Variant | abundance fitness
L38T | -0.548 ± 0.13
L38Y | -0.27 ± 0.086
L38F | -0.105 ± 0.091
L38M | 0.049 ± 0.19
L38H | -0.662 ± 0.17
V13P | -0.726 ± 0.19
V13N | -0.164 ± 0.17
V13I | -0.431 ± 0.33
V13F | -0.354 ± 0.22
Q33A | -0.071 ± 0.089
Q33C | -0.192 ± 0.099
Q33E | -0.014 ± 0.18
Q33N | 0.102 ± 0.073
Q33G | 0.015 ± 0.13
Q33I | -0.36 ± 0.089
Q33T | 0.006 ± 0.083
D51G | -0.047 ± 0.076
D51E | 0.032 ± 0.2
D51R | -0.019 ± 0.064
D51Y | -0.125 ± 0.088
D51H | -0.032 ± 0.099
G44S | -0.592 ± 0.22

Variant | abundance fitness
G44V | -0.843 ± 0.31
G44L | -0.547 ± 0.36
I26L | -0.107 ± 0.085
I26R | -0.894 ± 0.17
I26G | -0.926 ± 0.26
I26S | -0.79 ± 0.29
R21K | -0.28 ± 0.36
R21L | -0.358 ± 0.088
R21V | -0.755 ± 0.12
R21S | -0.433 ± 0.091
R21Q | -0.414 ± 0.24
R21A | -0.826 ± 0.19
E41Q | -0.352 ± 0.18
E41D | -0.349 ± 0.27
E41N | -0.361 ± 0.49
E41I | -0.191 ± 0.25
E41S | -0.013 ± 0.11
L42S | -0.267 ± 0.1
L42M | -0.678 ± 0.21
L42I | 0.043 ± 0.22
L42F | -0.212 ± 0.12
L42W | -0.399 ± 0.16

Variant | abundance fitness
D11V | -0.002 ± 0.16
V6R | -0.875 ± 0.12
V6A | -0.08 ± 0.063
V6K | -0.579 ± 0.18
V6N | -1.04 ± 0.31
V6P | -1.2 ± 0.39
V6H | -0.832 ± 0.2
V6M | -0.795 ± 0.2
K30I | -0.274 ± 0.12
K30M | 0.018 ± 0.11
K30W | -0.192 ± 0.091
K30T | -0.07 ± 0.11
K30N | -0.113 ± 0.16
V2C | -0.062 ± 0.12
V2A | -0.074 ± 0.071
V2Q | -0.224 ± 0.18
E34C | 0.094 ± 0.21
E34M | 0.05 ± 0.099
E34H | 0.173 ± 0.18
E34T | -0.028 ± 0.14
E34Q | -0.241 ± 0.36
E34D | -0.148 ± 0.15

Variant | abundance fitness
T19F | -0.841 ± 0.34
T19Y | -0.846 ± 0.22
T19S | -0.033 ± 0.066
T19N | -0.224 ± 0.11
T19A | -0.756 ± 0.14
T19P | -0.685 ± 0.19
T19I | -0.753 ± 0.16
M1R | -0.083 ± 0.12
M1Q | -0.301 ± 0.34
M1V | -0.153 ± 0.15
M1H | -0.209 ± 0.21
M1I | 0.078 ± 0.17
M1G | -0.14 ± 0.14
G23S | -0.651 ± 0.14
G23C | -0.831 ± 0.22
G23R | -0.856 ± 0.18
G23I | -0.739 ± 0.34
G23L | -1.17 ± 0.28
L32E | -0.088 ± 0.27
L32S | -0.011 ± 0.078

From the Human Domainome abundance scans (Beltran et al. 2025)
